Experimental data as given in PMC3398191.

T1: Atl1 (MBP fusion cleaved with Factor Xa) (Schizosaccharomyces pombe, UniProt Q9UTN9 1-108)
T1 sequence: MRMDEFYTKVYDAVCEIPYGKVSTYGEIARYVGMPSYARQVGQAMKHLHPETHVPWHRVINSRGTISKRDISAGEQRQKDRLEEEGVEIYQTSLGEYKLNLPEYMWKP

B1: O6-BTG 23-mer duplex (dsDNA)
DNA 1: GAACTGCAGCTCCGTGCTGGCCC
DNA 2: GGGCCAGCACGGAGCTGCAGTTC
modifications: O6-(4-bromothenyl)guanine at G6 of strand 1
B2: O6-BnG 23-mer duplex (dsDNA)
DNA 1: GAACTGCAGCTCCGTGCTGGCCC
DNA 2: GGGCCAGCACGGAGCTGCAGTTC
modifications: O6-benzylguanine at G6 of strand 1
B3: O6-HOEtG 23-mer duplex (dsDNA)
DNA 1: GAACTGCAGCTCCGTGCTGGCCC
DNA 2: GGGCCAGCACGGAGCTGCAGTTC
modifications: O6-hydroxyethylguanine at G6 of strand 1
B4: G control 23-mer duplex (dsDNA)
DNA 1: GAACTGCAGCTCCGTGCTGGCCC
DNA 2: GGGCCAGCACGGAGCTGCAGTTC
B5: O6-PobG 23-mer duplex (dsDNA)
DNA 1: GAACTGCAGCTCCGTGCTGGCCC
DNA 2: GGGCCAGCACGGAGCTGCAGTTC
modifications: O6-pyridyloxobutylguanine at G6 of strand 1
B6: O6-EtG 23-mer duplex (dsDNA)
DNA 1: GAACTGCAGCTCCGTGCTGGCCC
DNA 2: GGGCCAGCACGGAGCTGCAGTTC
modifications: O6-ethylguanine at G6 of strand 1
B7: O6-PrG 23-mer duplex (dsDNA)
DNA 1: GAACTGCAGCTCCGTGCTGGCCC
DNA 2: GGGCCAGCACGGAGCTGCAGTTC
modifications: O6-n-propylguanine at G6 of strand 1
B8: O6-BuG 23-mer duplex (dsDNA)
DNA 1: GAACTGCAGCTCCGTGCTGGCCC
DNA 2: GGGCCAGCACGGAGCTGCAGTTC
modifications: O6-n-butylguanine at G6 of strand 1
B9: O6-CMG 23-mer duplex (dsDNA)
DNA 1: GAACTGCAGCTCCGTGCTGGCCC
DNA 2: GGGCCAGCACGGAGCTGCAGTTC
modifications: O6-carboxymethylguanine at G6 of strand 1
B10: O6-MeG 23-mer duplex (dsDNA)
DNA 1: GAACTGCAGCTCCGTGCTGGCCC
DNA 2: GGGCCAGCACGGAGCTGCAGTTC
modifications: O6-methylguanine at G6 of strand 1

Biological target: T1, Atl1 (MBP fusion cleaved with Factor Xa)
Assay: EMSA

Binder	binding result
B1	binds
B2	binds
B3	binds
B4	no binding
B5	binds
B6	binds
B7	binds
B8	binds
B9	binds
B10	binds

Biological target: Maltose-binding protein (MBP) (UniProt P0AEX9 27-396)
Assay: EMSA

Binder	binding result
B10	no binding
